Target: the molecule itself
Assay: native MS

B1: Kir3.2, full-length, human (natural protein, UniProt P48051 1-423, looked up)
chain: MAKLTESMTNVLEGDSMDQDVESPVAIHQPKLPKQARDDLPRHISRDRTKRKIQRYVRKDGKCNVHHGNVRETYRYLTDIFTTLVDLKWRFNLLIFVMVYTVTWLFFGMIWWLIAYIRGDMDHIEDPSWTPCVTNLNGFVSAFLFSIETETTIGYGYRVITDKCPEGIILLLIQSVLGSIVNAFMVGCMFVKISQPKKRAETLVFSTHAVISMRDGKLCLMFRVGDLRNSHIVEASIRAKLIKSKQTSEGEFIPLNQTDINVGYYTGDDRLFLVSPLIISHEINQQSPFWEISKAQLPKEELEIVVILEGMVEATGMTCQARSSYITSEILWGYRFTPVLTLEDGFYEVDYNSFHETYETSTPSLSAKELAELASRAELPLSWSVSSKLNQHAELETEEEEKNLEEQTERNGDVANLENESKV
stoichiometry N: 4

Source: publication PMC9569133 (Biochemistry, 2021)
